Blank lines part the entries; values can stand above or below the sequence they belong to.
Key:
[1] = biological target: HLA-A*02:01; experiment: IEDB peptide-MHC binding, purified MHC/competitive/radioactivity; filed as Kd, often an IC50 or EC50 that approximates it; ≥ and ≤ were set here for values at or beyond the usual limits of such assays
[2] = biological target: HLA-A*02:17; experiment: as above
[3] = biological target: HLA-A*03:01; experiment: IEDB peptide-MHC binding, purified MHC/direct/fluorescence; filed as Kd, often an IC50 or EC50 that approximates it; ≥ and ≤ were set here for values at or beyond the usual limits of such assays
[4] = biological target: HLA-A*11:01; experiment: as above
[5] = biological target: HLA-A*31:01; experiment: IEDB peptide-MHC binding, purified MHC/competitive/fluorescence; filed as Kd, often an IC50 or EC50 that approximates it; ≥ and ≤ were set here for values at or beyond the usual limits of such assays
[6] = biological target: HLA-A*11:01; experiment: IEDB peptide-MHC binding, purified MHC/competitive/fluorescence; ≥ and ≤ were set here for values at or beyond the usual limits of such assays
[7] = biological target: HLA-A*24:02; experiment: as above
[8] = biological target: HLA-A*03:01; experiment: IEDB peptide-MHC binding, purified MHC/competitive/radioactivity; filed as Kd, often an IC50 or EC50 that approximates it; ≥ and ≤ were set here for values at or beyond the usual limits of such assays; details: source organism: Vaccinia virus WR
[9] = biological target: HLA-A*31:01; experiment: as above; details: source organism: Vaccinia virus WR
[10] = biological target: HLA-A*33:01; experiment: as above; details: source organism: Vaccinia virus WR
[11] = biological target: HLA-A*68:01; experiment: as above; details: source organism: Vaccinia virus WR
[12] = biological target: HLA-A*02:03; experiment: as above
[13] = biological target: HLA-B*51:01; experiment: as above; details: source organism: Dengue virus 2 Peru/IQT2913/1996
[14] = biological target: HLA-B*15:01; experiment: IEDB peptide-MHC binding, purified MHC/competitive/fluorescence; ≥ and ≤ were set here for values at or beyond the usual limits of such assays
[15] = biological target: HLA-A*02:01; experiment: as above
[16] = biological target: HLA-A*02:12; experiment: IEDB peptide-MHC binding, purified MHC/direct/fluorescence; filed as Kd, often an IC50 or EC50 that approximates it; ≥ and ≤ were set here for values at or beyond the usual limits of such assays
[17] = biological target: HLA-A*02:19; experiment: as above
[18] = biological target: HLA-A*03:01; experiment: IEDB peptide-MHC binding, purified MHC/competitive/fluorescence; filed as Kd, often an IC50 or EC50 that approximates it; ≥ and ≤ were set here for values at or beyond the usual limits of such assays; details: source organism: Neembucu hantavirus
[19] = biological target: HLA-A*26:01; experiment: as above; details: source organism: Neembucu hantavirus
[20] = biological target: HLA-A*69:01; experiment: as above; details: source organism: Neembucu hantavirus
[21] = biological target: HLA-B*15:01; experiment: as above; details: source organism: Neembucu hantavirus
[22] = biological target: HLA-B*15:17; experiment: as above; details: source organism: Neembucu hantavirus
[23] = biological target: HLA-B*18:01; experiment: as above; details: source organism: Neembucu hantavirus
[24] = biological target: HLA-B*27:03; experiment: as above; details: source organism: Neembucu hantavirus
[25] = biological target: HLA-B*39:01; experiment: as above; details: source organism: Neembucu hantavirus
[26] = biological target: HLA-B*46:01; experiment: as above; details: source organism: Neembucu hantavirus
[27] = biological target: HLA-B*51:01; experiment: as above; details: source organism: Neembucu hantavirus
[28] = biological target: HLA-B*57:01; experiment: as above; details: source organism: Neembucu hantavirus
[29] = biological target: HLA-A*30:01; experiment: IEDB peptide-MHC binding, purified MHC/competitive/radioactivity; filed as Kd, often an IC50 or EC50 that approximates it; ≥ and ≤ were set here for values at or beyond the usual limits of such assays; details: source organism: Dengue virus 4 Philippines/H241/1956
[30] = biological target: HLA-B*08:01; experiment: as above
[31] = biological target: HLA-B*15:01; experiment: as above; details: source organism: Dengue virus 3 China/80-2/1980
[32] = biological target: HLA-A*02:01; experiment: IEDB peptide-MHC binding, purified MHC/direct/fluorescence; filed as Kd, often an IC50 or EC50 that approximates it; ≥ and ≤ were set here for values at or beyond the usual limits of such assays; details: source organism: Amur virus
[33] = biological target: HLA-A*02:11; experiment: as above; details: source organism: Sapporo rat virus
[34] = biological target: HLA-A*69:01; experiment: as above; details: source organism: Amur virus
[35] = biological target: HLA-A*68:02; experiment: IEDB peptide-MHC binding, purified MHC/competitive/radioactivity; filed as Kd, often an IC50 or EC50 that approximates it; ≥ and ≤ were set here for values at or beyond the usual limits of such assays; details: source organism: Dengue virus 1 Brazil/97-11/1997
[36] = biological target: HLA-A*02:06; experiment: as above
[37] = source organism: Dengue virus 4 Philippines/H241/1956
[38] = source organism: Escherichia coli O157:H7
[39] = source organism: Vaccinia virus Copenhagen
[40] = source organism: Dengue virus 2 Thailand/NGS-C/1944
[41] = source organism: Dengue virus 1 Singapore/S275/1990
[42] = source organism: West Nile virus
[43] = source organism: Vaccinia virus
[44] = source organism: Sudan ebolavirus
[45] = source organism: Orthohantavirus negraense
[46] = source organism: Campylobacter jejuni
[47] = source organism: Mammarenavirus lassaense
[48] = source organism: Dengue virus 1 Brazil/97-11/1997
[49] = source organism: Dengue virus 3 China/80-2/1980
[50] = source organism: Zaire ebolavirus
[51] = source organism: Sapporo rat virus
[52] = source organism: Dengue virus 4 Dominica/814669/1981
[53] = source organism: Influenza A virus (A/swine/Korea/S190/2004(H9N2))
[54] = source organism: Vaccinia virus WR
[55] = source organism: Dengue virus 2 Jamaica/1409/1983

Sequence: ALPVYLMTL
Kd [1, 37]: 10.9 nM | Kd [2, 37]: 1.77 nM

Kd [3, 38]: 302 nM | Kd [4, 38]: 254 nM | Kd ([5]; source organism: Shewanella baltica OS155): 81.3 nM
Sequence: ATREGKHGK

Sequence: DIIIAVARK
IC50 ([6]; source organism: Variola virus): ≥ 177 µM | IC50 ([7]; source organism: Variola virus): 61.6 µM

Sequence: ETITEKTFK
IC50 [6, 39]: 5.57 µM | Kd [8]: 3.06 µM | Kd [9]: 823 nM | Kd [10]: 2.6 nM | Kd [11]: 12.1 nM

Sequence: FLFLMSGRGI
Kd [1, 40]: 4.21 nM | Kd ([12]; source organism: Dengue virus 2 Peru/IQT2913/1996): 6.33 nM | Kd [2, 40]: 726 nM | Kd [13]: 7.91 µM

Sequence: GLLCVMASSV
Kd [1, 41]: 11.4 nM | Kd [12, 41]: 26 nM | Kd [2, 41]: 151 nM

Sequence: GLYKSAPRR
Kd [4, 42]: ≥ 20000 nM | Kd [5, 42]: 197 nM

Sequence: GTSGTEKEF
IC50 [7, 43]: ≥ 205 µM | IC50 [14, 43]: ≥ 401 µM

Sequence: GVVVSTNRL
IC50 [15, 43]: 9.53 µM | IC50 [6, 43]: ≥ 80 µM

Sequence: ILAKAIFKL
Kd [1, 37]: 14 nM | Kd [2, 37]: 37.9 nM

Sequence: ILAKPKETF
IC50 [7, 44]: 0.5 µM | IC50 [14, 44]: ≥ 102 µM

Sequence: ILYMLSWGK
Kd [16, 45]: ≥ 20000 nM | Kd [17, 45]: ≥ 20000 nM | Kd [18]: 155 nM | Kd [19]: ≥ 20 µM | Kd [20]: ≥ 20 µM | Kd [21]: ≥ 20 µM | Kd [22]: ≥ 20 µM | Kd [23]: ≥ 20 µM | Kd [24]: ≥ 20 µM | Kd [25]: ≥ 20 µM | Kd [26]: ≥ 20 µM | Kd [27]: ≥ 20 µM | Kd [28]: ≥ 20 µM

Sequence: IMLEYPHFK
Kd [3, 46]: 22.9 nM | Kd [4, 46]: 1.8 nM | Kd ([5]; source organism: Campylobacter jejuni subsp. jejuni NCTC 11168 = ATCC 700819): 13.6 nM

Sequence: KCIKKGVEY
IC50 [14, 43]: ≥ 91.2 µM

Sequence: KEFLRYLLF
IC50 [7, 43]: 0.381 µM | IC50 [14, 43]: ≥ 277 µM

Sequence: KLIDIALSK
Kd [3, 47]: 639 nM | Kd [4, 47]: 1.2 nM | Kd ([5]; source organism: Lassa virus Josiah): 142 nM

Sequence: KMKKKTWLV
Kd [1, 37]: 66.6 nM | Kd [12, 37]: 31 nM | Kd [2, 37]: 65 nM | Kd [29]: 17.2 nM | Kd [30, 37]: 93.5 nM

Sequence: KSNIEETKF
IC50 [14, 43]: ≥ 481 µM

Sequence: KTFVELMRR
Kd [4, 41]: 16.2 nM | Kd ([5]; source organism: dengue virus type 1): ≤ 1 nM

Sequence: LLMLLPTAL
Kd [1, 41]: 7.54 nM | Kd [12, 48]: 31 nM | Kd [2, 41]: 11.6 nM | Kd [30, 48]: 6.42 nM

Sequence: LMMMLPATL
Kd [12, 49]: 6.62 nM | Kd [2, 49]: 227 nM | Kd [30, 49]: 18.7 nM | Kd [31]: 87.1 nM

Sequence: LSFASLFLP
IC50 [15, 50]: 2.67 µM | IC50 [6, 50]: ≥ 179 µM | IC50 [7, 50]: 11.1 µM | IC50 [14, 50]: ≥ 97.8 µM

Sequence: MLLILCTSQI
Kd [1, 41]: 75.8 nM | Kd [2, 41]: 182 nM

Sequence: MMMLPATLA
Kd [1, 49]: 27.6 nM | Kd [12, 49]: 28.6 nM | Kd [2, 49]: 106 nM

Sequence: QMTSTFIML
IC50 [7, 39]: 0.224 µM | IC50 [14, 39]: 30.2 µM

Kd [3, 38]: 1920 nM | Kd [4, 38]: ≥ 20000 nM | Kd ([5]; source organism: Escherichia coli K-12): 1.27 nM
Sequence: RFNVPGTWR

Sequence: SLCLMMMLPA
Kd [1, 49]: 65.7 nM | Kd [2, 49]: 11700 nM

Sequence: SLTECPTFL
Kd [32]: ≤ 1 nM | Kd [33]: ≤ 1 nM | Kd [16, 51]: 5 nM | Kd [17, 51]: 41 nM | Kd [34]: ≥ 20 µM

Sequence: SMPLGVVTN
IC50 [15, 44]: ≥ 115 µM | IC50 [6, 44]: ≥ 163 µM

Kd [3, 38]: 506 nM | Kd [4, 38]: 1.8 nM | Kd ([5]; source organism: Escherichia coli O157:H7 str. EDL933): 7 nM
Sequence: SVAPGTDFR

Sequence: TLATGPILTL
Kd [1, 52]: 65.4 nM | Kd [12, 52]: 12.1 nM | Kd [2, 52]: 687 nM

Sequence: TLQVSDVDK
IC50 [6, 50]: 41.9 µM

Sequence: TLTAAVLMLV
Kd [1, 41]: 3.97 nM | Kd [12, 48]: 3.45 nM | Kd [2, 41]: 1060 nM | Kd [35]: 1.58 nM

Sequence: TTHSWIPKR
Kd [3, 53]: 2830 nM | Kd [4, 53]: 132 nM | Kd ([5]; source organism: Influenza A virus (A/Fort Monmouth/1/1947-mouse adapted(H1N1))): 2.3 nM

Sequence: VGLITCKAF
IC50 [15, 54]: ≥ 1310 µM | IC50 [7, 54]: 7.71 µM | IC50 [14, 54]: 57.3 µM

Sequence: VILAGPIPV
Kd [1, 37]: 6.74 nM | Kd [36, 37]: 132 nM | Kd [2, 37]: 995 nM

Sequence: VLMMRTTWA
Kd [1, 55]: 34.6 nM | Kd [12, 55]: 13.5 nM | Kd [2, 55]: 15200 nM | Kd [30, 55]: 12.8 nM

Sequence: VLVGVVTLYL
Kd [1, 55]: 62 nM | Kd [2, 55]: 1570 nM

Sequence: WLVHRQWFL
Kd [1, 55]: 2.4 nM | Kd [36, 55]: 156 nM | Kd [2, 55]: 61.8 nM | Kd [30, 55]: 8.69 nM

Reference: the Immune Epitope Database (IEDB)
